Laboratory results: IntAct's records for PubMed 17053789

B1: Protection of telomeres protein 1 (Mus musculus), Q91WC1 (parent)
chain: MSLVSTAPYTYTPLNLLKEGTIANVYGVVKFFKPPYVSKGTDYCSVVTIVDQTNVKLTCMLFSGNYEALPIIYKVGDIVRFHRLKIQVYKNELQGINCSGFASLTFEGTVGMPVTARTSSKVFSFTPQDQKMVEALRVWASKHISASSTLVQLCDAQPMQYYDLTCQLLGKAQVDSTAFLLKVWDGTQTVLPSWRVSTQDLTFEGDLSHIERLQSLVVDILVYDNHVQVARSIEVGCFLRLYSLHTKLQPGNSETSSSESLRLEFHLHGGTSYGRGIRVLPDTSPCVDQLKKALEGANLPVTETSTGICQSENGDSSALSNSGSGAVSPYEEERCQQVSATILTNHQHLEKTPLCAILTQKAPQQYRVRAKLRSYLPRRLSQSVKLLCPKCHSVQEVPHGDSLDKILQDAATEAPDIKLKATSLYYSKVWTTEDQGGRQVAVHFVKNNGILPASSECLILIEGGRLCEVSKLSSKFHSVMPVRSGPESLELLTLSAPFLIQGKVHHYGCKQCSSLKPIQNLNSRFHKGPWTPSSVAEALGVVPLQYVFVMVFTLDDGTGVLEAYLKDSEHFFKIPASEVLTDDDLQRSLETIMDMICPPGIKVDAYPWLECLLKSYNVTIGTERRICYQIFDTTVAENVV
partner: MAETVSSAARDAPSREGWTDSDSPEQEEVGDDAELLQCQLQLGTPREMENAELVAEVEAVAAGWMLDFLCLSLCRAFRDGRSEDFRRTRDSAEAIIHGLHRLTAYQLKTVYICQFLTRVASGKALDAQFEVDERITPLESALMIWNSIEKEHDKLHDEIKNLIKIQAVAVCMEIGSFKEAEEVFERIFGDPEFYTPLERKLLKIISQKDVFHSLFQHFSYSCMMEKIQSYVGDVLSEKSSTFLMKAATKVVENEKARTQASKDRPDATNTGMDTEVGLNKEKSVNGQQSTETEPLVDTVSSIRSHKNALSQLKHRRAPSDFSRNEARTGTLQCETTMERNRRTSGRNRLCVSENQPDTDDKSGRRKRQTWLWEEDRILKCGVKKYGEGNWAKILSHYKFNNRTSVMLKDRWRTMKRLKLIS

Variants of: B1
Settings: with terf1_mouse Terf1, P70371

Variant	effect of a mutation on the interaction
Y223A	disrupting interaction
